Data taken from PMC5843810, “18th European Symposium on Radiopharmacy and Radiopharmaceuticals” (EJNMMI Radiopharmacy and Chemistry, 2016).
pIC50: −log10 of the molar value.

Molecular target: Gastrin-Releasing Peptide Receptor (human (endogenous in PC3)) (UniProt P30550)
Assay: radioligand binding; displacement of the small-molecule tracer [18F]PD410 from PC3 cells by increasing concentrations of the peptide

Chain of Gastrin-Releasing Peptide Receptor (human (endogenous in PC3)) (P30550 whole entry): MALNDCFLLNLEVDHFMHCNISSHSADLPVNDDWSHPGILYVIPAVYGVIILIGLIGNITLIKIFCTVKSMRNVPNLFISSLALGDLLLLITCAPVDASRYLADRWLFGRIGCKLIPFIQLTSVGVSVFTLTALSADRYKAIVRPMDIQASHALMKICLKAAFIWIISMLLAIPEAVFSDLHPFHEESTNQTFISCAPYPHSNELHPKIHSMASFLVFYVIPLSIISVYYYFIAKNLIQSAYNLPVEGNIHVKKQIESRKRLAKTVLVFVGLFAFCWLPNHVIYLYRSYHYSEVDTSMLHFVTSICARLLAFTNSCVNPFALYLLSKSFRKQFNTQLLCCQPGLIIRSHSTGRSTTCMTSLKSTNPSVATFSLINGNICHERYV

Substance: Glu[Aca-BN(7-14)]2 (peptide)
- pIC50: 10.00
